Legend:
[1] = target: Flag-tagged EZH2, purified recombinant (human, UniProt Q15910 1-746); assay: AlphaScreen or HTRF
[2] = target: GST-tagged EZH2, purified recombinant (human, UniProt Q15910 1-746); assay: AlphaScreen or HTRF
GST-tagged EZH2, purified recombinant, sequence (Q15910 whole entry): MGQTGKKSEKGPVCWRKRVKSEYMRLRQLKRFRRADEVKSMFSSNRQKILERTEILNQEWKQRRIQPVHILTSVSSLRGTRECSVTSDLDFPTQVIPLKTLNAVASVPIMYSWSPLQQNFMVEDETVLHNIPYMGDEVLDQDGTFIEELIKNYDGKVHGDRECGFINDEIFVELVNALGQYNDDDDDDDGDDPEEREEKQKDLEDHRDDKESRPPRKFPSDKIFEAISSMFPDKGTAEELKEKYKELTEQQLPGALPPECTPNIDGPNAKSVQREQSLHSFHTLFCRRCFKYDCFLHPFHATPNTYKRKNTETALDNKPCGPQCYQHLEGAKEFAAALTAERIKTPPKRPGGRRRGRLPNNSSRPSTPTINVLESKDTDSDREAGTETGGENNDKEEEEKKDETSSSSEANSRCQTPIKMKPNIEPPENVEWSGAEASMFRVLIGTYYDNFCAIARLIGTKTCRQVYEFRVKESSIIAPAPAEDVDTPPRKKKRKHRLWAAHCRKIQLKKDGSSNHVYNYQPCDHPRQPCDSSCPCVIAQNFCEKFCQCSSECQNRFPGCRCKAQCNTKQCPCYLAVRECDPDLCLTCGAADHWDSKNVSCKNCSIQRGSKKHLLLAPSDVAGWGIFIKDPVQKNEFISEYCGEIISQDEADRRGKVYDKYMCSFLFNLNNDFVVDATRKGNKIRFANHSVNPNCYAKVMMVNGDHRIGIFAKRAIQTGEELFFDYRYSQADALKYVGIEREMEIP

Flag-tagged EZH2, purified recombinant, sequence (Q15910 whole entry): as above

Row | Binder | Kd [1] | Kd [2]
1 | unlabeled NOP56, purified recombinant (natural protein, human, UniProt O00567 1-594, looked up) MVLLHVLFEHAVGYALLALKEVEEISLLQPQVEESVLNLGKFHSIVRLVAFCPFASSQVALENANAVSEGVVHEDLRLLLETHLPSKKKKVLLGVGDPKIGAAIQEELGYNCQTGGVIAEILRGVRLHFHNLVKGLTDLSACKAQLGLGHSYSRAKVKFNVNRVDNMIIQSISLLDQLDKDINTFSMRVREWYGYHFPELVKIINDNATYCRLAQFIGNRRELNEDKLEKLEELTMDGAKAKAILDASRSSMGMDISAIDLINIESFSSRVVSLSEYRQSLHTYLRSKMSQVAPSLSALIGEAVGARLIAHAGSLTNLAKYPASTVQILGAEKALFRALKTRGNTPKYGLIFHSTFIGRAAAKNKGRISRYLANKCSIASRIDCFSEVPTSVFGEKLREQVEERLSFYETGEIPRKNLDVMKEAMVQAEEAAAEITRKLEKQEKKRLKKEKKRLAALALASSENSSSTPEECEEMSEKPKKKKKQKPQEVPQENGMEDPSISFSKPKKKKSFSKEELMSSDLEETAGSTSIPKRKKSTPKEETVNDPEEAGHRSGSKKKRKFSKEEPVSSGPEEAVGKSSSKKKKKFHKASQED | 43.6 nM | –
2 | unlabeled FBL, purified recombinant (natural protein, human, UniProt P22087 1-321, looked up) MKPGFSPRGGGFGGRGGFGDRGGRGGRGGFGGGRGRGGGFRGRGRGGGGGGGGGGGGGRGGGGFHSGGNRGRGRGGKRGNQSGKNVMVEPHRHEGVFICRGKEDALVTKNLVPGESVYGEKRVSISEGDDKIEYRAWNPFRSKLAAAILGGVDQIHIKPGAKVLYLGAASGTTVSHVSDIVGPDGLVYAVEFSHRSGRDLINLAKKRTNIIPVIEDARHPHKYRMLIAMVDVIFADVAQPDQTRIVALNAHTFLRNGGHFVISIKANCIDSTASAEAVFASEVKKMQQENMKPQEQLTLEPYERDHAVVVGVYRPPPKVKN | – | 842 nM
